Test results: patent US20220363770A1 (Amgen, published 2022)

T1: human PAC1 receptor (human, UniProt P41586 24-468)
T1 sequence: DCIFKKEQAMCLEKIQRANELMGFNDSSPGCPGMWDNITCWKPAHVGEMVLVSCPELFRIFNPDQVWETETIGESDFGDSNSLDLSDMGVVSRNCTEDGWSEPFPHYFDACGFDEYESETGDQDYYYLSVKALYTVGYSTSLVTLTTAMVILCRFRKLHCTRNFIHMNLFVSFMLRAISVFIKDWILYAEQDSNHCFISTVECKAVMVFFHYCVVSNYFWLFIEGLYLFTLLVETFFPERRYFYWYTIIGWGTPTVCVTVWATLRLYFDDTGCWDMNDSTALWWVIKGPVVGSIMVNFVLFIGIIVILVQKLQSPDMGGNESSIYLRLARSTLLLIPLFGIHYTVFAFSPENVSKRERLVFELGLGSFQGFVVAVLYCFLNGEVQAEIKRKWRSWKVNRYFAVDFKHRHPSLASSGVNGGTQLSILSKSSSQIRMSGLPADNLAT


Columns and labels:
[1] = molecular target: human CGRP receptor (human, UniProt Q16602 23-461; O60894 27-148); assay: cell-based or functional assay
[2] = molecular target: T1, human PAC1 receptor; assay: cell-based or functional assay

human CGRP receptor, sequence (Q16602 23-461 limits assumed, chain 1 of 2): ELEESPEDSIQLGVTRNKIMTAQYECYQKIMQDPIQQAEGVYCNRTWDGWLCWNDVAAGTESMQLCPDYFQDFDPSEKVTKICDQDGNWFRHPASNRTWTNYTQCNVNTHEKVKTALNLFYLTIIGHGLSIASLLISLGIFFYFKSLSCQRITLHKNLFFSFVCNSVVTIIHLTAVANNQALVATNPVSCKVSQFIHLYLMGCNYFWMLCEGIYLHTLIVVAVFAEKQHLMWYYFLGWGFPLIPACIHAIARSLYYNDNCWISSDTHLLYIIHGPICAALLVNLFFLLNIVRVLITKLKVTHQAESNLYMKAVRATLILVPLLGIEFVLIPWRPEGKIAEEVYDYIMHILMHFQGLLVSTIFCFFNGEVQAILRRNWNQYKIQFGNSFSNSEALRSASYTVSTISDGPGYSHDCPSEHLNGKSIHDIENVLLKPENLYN
human CGRP receptor, sequence (O60894 27-148 limits assumed, chain 2 of 2): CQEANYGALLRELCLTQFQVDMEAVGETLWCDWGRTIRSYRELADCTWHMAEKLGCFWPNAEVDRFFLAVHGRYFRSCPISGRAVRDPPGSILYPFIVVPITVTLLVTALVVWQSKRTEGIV

Binder	Fold-improvement over 4E4 Ab [1]	IC50 [1]	Fold-improvement over 29G4v22 Ab [2]	IC50 [2]
iPS:454827 (bispecific antibody, human IgG1, kappa, lambda, N297G) light 1: QSVLTQPPSVSAAPGQKVTISCSGSRSNIGIKAVSWYQQLPGTAPKLLIYDNNKRPSGIPDRFSGSKSGTSATLGITGLQTGDEADYYCGTWDSRLSAVVFGGGTKLTVLGQPKAAPSVTLFPPSSEELQANKATLVCLISDFYPGAVTVAWKADSSPVKAGVETTTPSKQSNNKYAAKSYLSLTPEQWKSHRSYSCQVTHEGSTVEKTVAPTECS heavy 1: QVQLVESGGGVVQPGRSLRLSCAASGFTFSSFGMHWVRQAPGKGLEWVAVISFDGSIKYSVDSVKGRFTISRDNSKNTLFLQMNSLRAEDTAVYYCARDRLNYYESSGYYHYKYYGMAVWGQGTTVTVSSASTKGPSVFPLAPSSKSTSGGTAALGCLVKDYFPEPVTVSWNSGALTSGVHTFPAVLQSSGLYSLESVVTVPSSSLGTQTYICNVNHKPSNTKVDKKVEPKSCDKTHTCPPCPAPELLGGPSVFLFPPKPKDTLMISRTPEVTCVVVDVSHEDPEVKFNWYVDGVEVHNAKTKPCEEQYGSTYRCVSVLTVLHQDWLNGKEYKCKVSNKALPAPIEKTISKAKGQPREPQVYTLPPSRKKMTKNQVSLTCLVKGFYPSDIAVEWESNGQPENNYKTTPPVLKSDGSFFLYSKLTVDKSRWQQGNVFSCSVMHEALHNHYTQKSLSLSPGK light 2: EIVLTQSPATLSLSPGERATLSCRASQSVGRSLHWYQQKPGQAPRLLIKYASQSLSGIPARFSGSGSGTDFTLTISSLEPEDFAVYYCHQSSRLPFTFGPGTKVDIKRTVAAPSVFIFPPSDEQLKSGTASVVCLLNNFYPREAKVQWKVDNALQSGNSQESVTEQDSKDSTYSLESTLTLSKADYEKHKVYACEVTHQGLSSPVTKSFNRGEC heavy 2: not shown	1.7 fold	0.34 nM	8.9 fold	0.75 nM
iPS:454829 (bispecific antibody, human IgG1, kappa, lambda, N297G) light 1: QSVLTQPPSVSAAPGQKVTISCSGSRSNIGIKAVSWYQQLPGTAPKLLIYDNNKRPSGIPDRFSGSKSGTSATLGITGLQTGDEADYYCGTWDSRLSAVVFGGGTKLTVLGQPKAAPSVTLFPPSSEELQANKATLVCLISDFYPGAVTVAWKADSSPVKAGVETTTPSKQSNNKYAAKSYLSLTPEQWKSHRSYSCQVTHEGSTVEKTVAPTECS heavy 1: QVQLVESGGGVVQPGRSLRLSCAASGFTFSSFGMHWVRQAPGKGLEWVAVISFDGSIKYSVDSVKGRFTISRDNSKNTLFLQMNSLRAEDTAVYYCARDRLNYYESSGYYHYKYYGMAVWGQGTTVTVSSASTKGPSVFPLAPSSKSTSGGTAALGCLVKDYFPEPVTVSWNSGALTSGVHTFPAVLQSSGLYSLESVVTVPSSSLGTQTYICNVNHKPSNTKVDKKVEPKSCDKTHTCPPCPAPELLGGPSVFLFPPKPKDTLMISRTPEVTCVVVDVSHEDPEVKFNWYVDGVEVHNAKTKPCEEQYGSTYRCVSVLTVLHQDWLNGKEYKCKVSNKALPAPIEKTISKAKGQPREPQVYTLPPSRKKMTKNQVSLTCLVKGFYPSDIAVEWESNGQPENNYKTTPPVLKSDGSFFLYSKLTVDKSRWQQGNVFSCSVMHEALHNHYTQKSLSLSPGK light 2: EIVLTQSPATLSLSPGERATLSCRASQSVGRSLHWYQQKPGQAPRLLIKYASQSLSGIPARFSGSGSGTDFTLTISSLEPEDFAVYYCHQSSRLPFTFGPGTKVDIKRTVAAPSVFIFPPSDEQLKSGTASVVCLLNNFYPREAKVQWKVDNALQSGNSQESVTEQDSKDSTYSLESTLTLSKADYEKHKVYACEVTHQGLSSPVTKSFNRGEC heavy 2: not shown	1.8 fold	0.36 nM	9.8 fold	0.7 nM
iPS:454831 (bispecific antibody, human IgG1, kappa, lambda, N297G) light 1: QSVLTQPPSVSAAPGQKVTISCSGSRSNIGIKAVSWYQQLPGTAPKLLIYDNNKRPSGIPDRFSGSKSGTSATLGITGLQTGDEADYYCGTWDSRLSAVVFGGGTKLTVLGQPKAAPSVTLFPPSSEELQANKATLVCLISDFYPGAVTVAWKADSSPVKAGVETTTPSKQSNNKYAAKSYLSLTPEQWKSHRSYSCQVTHEGSTVEKTVAPTECS heavy 1: QVQLVESGGGVVQPGRSLRLSCAASGFTFSSFGMHWVRQAPGKGLEWVAVISFDGSIKYSVDSVKGRFTISRDNSKNTLFLQMNSLRAEDTAVYYCARDRLNYYESSGYYHYKYYGMAVWGQGTTVTVSSASTKGPSVFPLAPSSKSTSGGTAALGCLVKDYFPEPVTVSWNSGALTSGVHTFPAVLQSSGLYSLESVVTVPSSSLGTQTYICNVNHKPSNTKVDKKVEPKSCDKTHTCPPCPAPELLGGPSVFLFPPKPKDTLMISRTPEVTCVVVDVSHEDPEVKFNWYVDGVEVHNAKTKPCEEQYGSTYRCVSVLTVLHQDWLNGKEYKCKVSNKALPAPIEKTISKAKGQPREPQVYTLPPSRKKMTKNQVSLTCLVKGFYPSDIAVEWESNGQPENNYKTTPPVLKSDGSFFLYSKLTVDKSRWQQGNVFSCSVMHEALHNHYTQKSLSLSPGK light 2: EIVLTQSPATLSLSPGERATLSCRASQSVGRSLHWYQQKPGQAPRLLIKYASQSLSGIPARFSGSGSGTDFTLTISSLEPEDFAVYYCHQSSRLPFTFGPGTKVDIKRTVAAPSVFIFPPSDEQLKSGTASVVCLLNNFYPREAKVQWKVDNALQSGNSQESVTEQDSKDSTYSLESTLTLSKADYEKHKVYACEVTHQGLSSPVTKSFNRGEC heavy 2: not shown	1.7 fold	0.38 nM	7.6 fold	0.9 nM
iPS:454833 (bispecific antibody, human IgG1, kappa, lambda, N297G) light 1: QSVLTQPPSVSAAPGQKVTISCSGSRSNIGIKAVSWYQQLPGTAPKLLIYDNNKRPSGIPDRFSGSKSGTSATLGITGLQTGDEADYYCGTWDSRLSAVVFGGGTKLTVLGQPKAAPSVTLFPPSSEELQANKATLVCLISDFYPGAVTVAWKADSSPVKAGVETTTPSKQSNNKYAAKSYLSLTPEQWKSHRSYSCQVTHEGSTVEKTVAPTECS heavy 1: QVQLVESGGGVVQPGRSLRLSCAASGFTFSSFGMHWVRQAPGKGLEWVAVISFDGSIKYSVDSVKGRFTISRDNSKNTLFLQMNSLRAEDTAVYYCARDRLNYYESSGYYHYKYYGMAVWGQGTTVTVSSASTKGPSVFPLAPSSKSTSGGTAALGCLVKDYFPEPVTVSWNSGALTSGVHTFPAVLQSSGLYSLESVVTVPSSSLGTQTYICNVNHKPSNTKVDKKVEPKSCDKTHTCPPCPAPELLGGPSVFLFPPKPKDTLMISRTPEVTCVVVDVSHEDPEVKFNWYVDGVEVHNAKTKPCEEQYGSTYRCVSVLTVLHQDWLNGKEYKCKVSNKALPAPIEKTISKAKGQPREPQVYTLPPSRKKMTKNQVSLTCLVKGFYPSDIAVEWESNGQPENNYKTTPPVLKSDGSFFLYSKLTVDKSRWQQGNVFSCSVMHEALHNHYTQKSLSLSPGK light 2: EIVLTQSPATLSLSPGERATLSCRASKSVGRSLHWYQQKPGQAPRLLIKYASQSLSGIPARFSGSGSGTDFTLTISSLEPEDFAVYYCHQSSRLPFTFGPGTKVDIKRTVAAPSVFIFPPSDEQLKSGTASVVCLLNNFYPREAKVQWKVDNALQSGNSQESVTEQDSKDSTYSLESTLTLSKADYEKHKVYACEVTHQGLSSPVTKSFNRGEC heavy 2: not shown	2.6 fold	0.24 nM	9 fold	0.76 nM
iPS:454835 (bispecific antibody, human IgG1, kappa, lambda, N297G) light 1: QSVLTQPPSVSAAPGQKVTISCSGSRSNIGIKAVSWYQQLPGTAPKLLIYDNNKRPSGIPDRFSGSKSGTSATLGITGLQTGDEADYYCGTWDSRLSAVVFGGGTKLTVLGQPKAAPSVTLFPPSSEELQANKATLVCLISDFYPGAVTVAWKADSSPVKAGVETTTPSKQSNNKYAAKSYLSLTPEQWKSHRSYSCQVTHEGSTVEKTVAPTECS heavy 1: QVQLVESGGGVVQPGRSLRLSCAASGFTFSSFGMHWVRQAPGKGLEWVAVISFDGSIKYSVDSVKGRFTISRDNSKNTLFLQMNSLRAEDTAVYYCARDRLNYYESSGYYHYKYYGMAVWGQGTTVTVSSASTKGPSVFPLAPSSKSTSGGTAALGCLVKDYFPEPVTVSWNSGALTSGVHTFPAVLQSSGLYSLESVVTVPSSSLGTQTYICNVNHKPSNTKVDKKVEPKSCDKTHTCPPCPAPELLGGPSVFLFPPKPKDTLMISRTPEVTCVVVDVSHEDPEVKFNWYVDGVEVHNAKTKPCEEQYGSTYRCVSVLTVLHQDWLNGKEYKCKVSNKALPAPIEKTISKAKGQPREPQVYTLPPSRKKMTKNQVSLTCLVKGFYPSDIAVEWESNGQPENNYKTTPPVLKSDGSFFLYSKLTVDKSRWQQGNVFSCSVMHEALHNHYTQKSLSLSPGK light 2: EIVLTQSPATLSLSPGERATLSCRASKSVGRSLHWYQQKPGQAPRLLIKYASQSLSGIPARFSGSGSGTDFTLTISSLEPEDFAVYYCHQSSRLPFTFGPGTKVDIKRTVAAPSVFIFPPSDEQLKSGTASVVCLLNNFYPREAKVQWKVDNALQSGNSQESVTEQDSKDSTYSLESTLTLSKADYEKHKVYACEVTHQGLSSPVTKSFNRGEC heavy 2: not shown	2.2 fold	0.28 nM	9.3 fold	0.73 nM
iPS:454837 (bispecific antibody, human IgG1, kappa, lambda, N297G) light 1: QSVLTQPPSVSAAPGQKVTISCSGSRSNIGIKAVSWYQQLPGTAPKLLIYDNNKRPSGIPDRFSGSKSGTSATLGITGLQTGDEADYYCGTWDSRLSAVVFGGGTKLTVLGQPKAAPSVTLFPPSSEELQANKATLVCLISDFYPGAVTVAWKADSSPVKAGVETTTPSKQSNNKYAAKSYLSLTPEQWKSHRSYSCQVTHEGSTVEKTVAPTECS heavy 1: QVQLVESGGGVVQPGRSLRLSCAASGFTFSSFGMHWVRQAPGKGLEWVAVISFDGSIKYSVDSVKGRFTISRDNSKNTLFLQMNSLRAEDTAVYYCARDRLNYYESSGYYHYKYYGMAVWGQGTTVTVSSASTKGPSVFPLAPSSKSTSGGTAALGCLVKDYFPEPVTVSWNSGALTSGVHTFPAVLQSSGLYSLESVVTVPSSSLGTQTYICNVNHKPSNTKVDKKVEPKSCDKTHTCPPCPAPELLGGPSVFLFPPKPKDTLMISRTPEVTCVVVDVSHEDPEVKFNWYVDGVEVHNAKTKPCEEQYGSTYRCVSVLTVLHQDWLNGKEYKCKVSNKALPAPIEKTISKAKGQPREPQVYTLPPSRKKMTKNQVSLTCLVKGFYPSDIAVEWESNGQPENNYKTTPPVLKSDGSFFLYSKLTVDKSRWQQGNVFSCSVMHEALHNHYTQKSLSLSPGK light 2: EIVLTQSPATLSLSPGERATLSCRASKAVGWSLHWYQQKPGQAPRLLIKYASQSLSGIPARFSGSGSGTDFTLTISSLEPEDFAVYYCHQSSRLPFTFGPGTKVDIKRTVAAPSVFIFPPSDEQLKSGTASVVCLLNNFYPREAKVQWKVDNALQSGNSQESVTEQDSKDSTYSLESTLTLSKADYEKHKVYACEVTHQGLSSPVTKSFNRGEC heavy 2: not shown	1.4 fold	0.45 nM	6.8 fold	1.01 nM
